From PMC9817077, “Simple, Reliable Protocol for High-Yield Solubilization of Seedless Amyloid-β Monomer” (ACS Chemical Neuroscience, 2022)

Key:
[1] = Thioflavin T (ThT) self-assembly (fibrillization) kinetics assay; type: physicochemical
Experimental: Peptide was prepared using either of the aforementioned protocols, with or without HFIP pretreatment, and self-assembly was initiated by rapid dilution into the fibrillization buffer to a final concentration of 1–10 μM peptide. […] The success of this strategy was confirmed empirically.
Self-assembly experiments were carried out in a 20 mM sodium phosphate buffer (pH 8) containing 200 μM EDTA, 1 mM NaN3, and 20 μM ThT. […] Correction can be carried out before or after this addition. However, if correction is carried out after the peptide has been added to the buffer stock, the peptide will already have begun to aggregate so that the delay could influence the results. In addition, adding acid to lower the pH would modify the buffer composition and increase the ionic strength from its intended value. As a better alternative, one can correct the pH in advance, by preparing a buffer stock that is more acidic than the final intended solution but reliably reaches the correct pH following the addition of a known quantity of NaOH and Aβ(1-42). Note that this correction is only necessary when preparing Aβ(1-42) solutions by direct addition of the peptide from NaOH stock and is not necessary when exchanging the peptide into the correct buffer by SEC.
The ratio of NaH2PO4 and Na2HPO4 in the 5× buffer stock was chosen to give the correct pH when mixed with the NaOH and other buffer constituents, and was initially based on calculation and subsequently optimized experimentally. The final intended quantities of H2PO4^– and HPO4^2– can be calculated from the Henderson-Hasselbalch eq.[97] Given an acid dissociation constant K2 ≈ 6.94 at the ionic strength of the self-assembly buffer,[98] one expects the final self-assembly buffer to contain approximately 1.6 mM H2PO4^– and 18.4 mM HPO4^2–. When NaOH is added to phosphate buffer, most of the hydroxide is consumed in the reaction OH^– + H2PO4^– → H2O + HPO4^2–. Therefore, if 10 mM NaOH is incorporated into the final buffer at 10% of the final volume, 1 mM H2PO4^– will be converted to 1 mM HPO4^2–. Thus, to achieve the correct final ratio of phosphate ions, the 5× buffer stock will need to contain 5 × (1.6 + 1.0) mM = 13 mM NaH2PO4 and 5 × (18.4 – 1.0) mM = 87 mM Na2HPO4. Similarly, if 50 mM NaOH is used, the 5× buffer stock will need to contain 5 × (1.6 + 5.0) mM = 33 mM NaH2PO4 and 5 × (18.4 – 5.0) mM = 67 mM Na2HPO4. In practice, these calculations were used to inform preparation of a test buffer stock, which was then used to prepare a test self-assembly buffer using the ratios described above. If the pH of this test solution was outside the 7.98–8.02 range, a new test buffer stock was prepared with a modified composition. […]

[2] = AF4-MALS fractionation of re-solubilized samples; type: physicochemical
Experimental: Samples were analyzed using an AF4 frit inlet (FI) channel equilibrated in 1 mM NaOH, with a 250 μm spacer and a 1 kDa PES membrane, and in-line UV (280 nm; Shimadzu, U.K.), MALS, and RI detectors. Except where otherwise stated, the channel, associated pumps, autosampler, and detectors were purchased or loaned from Postnova Analytics (Landsberg am Lech, Germany). The RI detector was purged following equilibration, and the UV and RI detectors were then zeroed. […] The sample was separated in a 1 mM NaOH mobile phase, with 0.2 mL/min TIP and detector flow; the focus and cross-flow rates were also matched to one another and varied throughout the run.
Data processing and estimation of sample concentration, molecular weight, and recovery were carried out in the AF2000 Control software (Postnova Analytics, Landsberg am Lech, Germany), with additional data processing in GraphPad Prism version 8.3.0. […] We note that, although there is an isosbestic point nearby at 276 nm, the relatively rapid decrease in tyrosine absorbance and increase in tyrosinate absorbance to the right of this point mean that deprotonation still has a significant effect on the extinction coefficient at 280 nm. […] As a result, the tyrosine/tyrosinate extinction coefficient is more appropriate for analysis of the monomer and oligomer fractions in our AF4-MALS runs. Molecular weight values were calculated by fitting models to the UV280 and MALS signals. The molecular weights in Figure 2e were obtained using a fourth-degree Berry fit from 2.0 to 7.0 min, a linear Zimm fit from 7.0 to 12.5 min, and a third-degree Berry fit from 28.0 to 50.0 min. The molecular weights in Figure 3c were obtained using a linear Zimm fit. […] This summation tends toward an exact integral as Δt → 0, and the experimental parameter of Δt = 0.12 min was sufficiently small for the approximation to be reasonably accurate. The probability density function p(M), which gives the probability density of species with mass M, can be calculated as p(M) = dP(Mw ≤ M)/dM. However, when presenting the data on a logarithmic axis, peaks in the probability density function are horizontally stretched at low M and horizontally compressed at high M, meaning that the peak area is no longer proportional to the mass of material.

[3] = 50 mM NaOH, 20 μg injected, mean ± SD
[4] = 50 mM NaOH, geometric average Mw elugram, ROI 3.3–20.0 min
[5] = 5 min sonication in 50 mM NaOH (pH ≈ 12.5), 20 μg injected, 1 mM NaOH mobile phase, UV280, mean ± SD, n = 12
[6] = re-solubilized in 10 mM NaOH without HFIP, 20 μg injected, 1 mM NaOH mobile phase, UV280, mean ± SD

With “Aβ(1-42): Ultrapure recombinant Aβ(1-42) purchased from rPeptide, lyophilized from HFIP; disordered amyloid-forming peptide” the “initial ThT fluorescence” value ([1]; 50 mM NaOH samples, 4 μM peptide, 20 mM sodium phosphate pH 8, 37 °C, mean) was 2.2 % of final fluorescence, the “fibrillization half-time τhalf” value ([1]; commercial recombinant samples solubilized in 50 mM NaOH, 20 mM sodium phosphate pH 8, 37 °C, concentration not given) was 7700 ± 380 s and the “scaling exponent γ” value ([1]; commercial recombinant, 5 min sonication in 50 mM NaOH (sample 50-5-N-13), fit of mean half-times 1.5–4.0 μM, 20 mM sodium phosphate pH 8, 37 °C) was −1.32. For the same substance, the “scaling exponent γ (slope of half-time vs Aβ(1-42) concentration, double-logarithmic)” value ([1]; re-solubilized in 10 mM NaOH with or without HFIP pretreatment, 1–5 μM peptide, 20 mM sodium phosphate pH 8.0, 200 μM EDTA, 1 mM NaN3, 20 μM ThT, 37 °C, average, SD 0.24 across 9 peptide samples) was −1.04, the “material eluting in peak 2” value ([2]; 10 mM NaOH preparations with higher pH (≳10.0) after re-solubilization, 20 μg injected, mean ± SD) was 18.30 ± 1.17 µg and the “material eluting in peak 2” value ([2]; 10 mM NaOH preparations with more neutral pH (≲8.0) after re-solubilization, 20 μg injected, mean ± SD) was 7.62 ± 2.20 µg. The “recovery in peak 1” value ([2]; 10 mM NaOH preparations, more neutral samples (≲8.0), 20 μg injected, mean ± SD) was 6.32 ± 6.62 µg, the “fraction of sample eluting in peak 3” value ([2]; 10 mM NaOH, relative to injected mass of 20 μg, ± SD) was about 11 ± 5% and the “recovery from the first two regions of interest (1.5–30.0 min)” value [2, 3] was 19.90 ± 0.99 µg. For the same substance, the “total recovery across all three regions of interest” value [2, 3] was 20.62 ± 1.19 µg, the “sample eluting in fractions suggestive of dimer or larger” value [2, 4] was 12% and the “sample eluting in fractions with Mw closer to the monomer” value [2, 4] was 88%. For the same substance, the “Mw of eluting material from 4.0 to 5.0 min” value ([2]; 50 mM NaOH, geometric mean of 10 concordant Mw elugrams, linear Zimm fit) was about 4500 Da, the “major peak of the molecular weight distribution” value ([2]; 50 mM NaOH, sample eluting 3.3–20.0 min, from average elugram and UV280) was about 4500 Da and the “material eluting in the peak 1 region (1.5–3.3 min)” value [2, 5] was 0.31 ± 0.17 µg. The “material eluting in the peak 2 region (3.3–30.0 min)” value [2, 5] was 19.59 ± 0.90 µg, the “material eluting in the peak 3 region (>30 min), nominal” value [2, 5] was 0.72 ± 0.32 µg and the “material eluting in peak 1 (1.5–3.3 min)” value [2, 6] was 3.99 ± 5.92 µg. The “material eluting in peak 2 (3.3–30.0 min), monomer and small oligomer” value [2, 6] was 11.73 ± 5.70 µg, the “material eluting in peak 3 (30.0–60.0 min)” value [2, 6] was 2.11 ± 0.95 µg and the “total material eluted in the AF4 run” value ([2]; re-solubilized in 10 mM NaOH, 20 μg injected, mean ± SD) was 17.82 ± 6.68 µg.
